Data set [1] has as its system HeLa Kyoto. The experiment in a line: melting temperature (median over replicates), in situ; higher = more thermally stable.
Data set [2] deals with HeLa Kyoto. The data set is described as follows: thermal stability score vs G1/S (z-score of summed log2 fold changes over temperatures); higher = more thermally stable than in G1/S.
In data set [3] the test system is HeLa Kyoto. The data set is described as follows: solubility in G1/S (NP-40 vs SDS abundance) (log2 ratio); higher = more soluble. The note with it: cell cycle stage: G1/S.
Data set [4] concerns HeLa Kyoto. The experiment in a line: solubility change mitosis vs G1/S (difference of NP-40 vs SDS log2 ratios) (log2 ratio difference); higher = more soluble in mitosis.
Setting [5] is: cell cycle stage: early G1 (4.5 h after nocodazole release).
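Throughout, for melting temperature (median over replicates), in situ: HeLa Kyoto cells synchronized by double thymidine or nocodazole block, proteins quantified by TMT10plex mass spectrometry, three independent biological replicates.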
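Throughout, for solubility change mitosis vs G1/S (difference of NP-40 vs SDS log2 ratios): synchronized HeLa Kyoto cells (double thymidine block for G1/S, nocodazole release for mitosis), protein amounts in NP-40 versus SDS lysates quantified by mass spectrometry, three biological replicates.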
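Throughout, for solubility in G1/S (NP-40 vs SDS abundance): HeLa Kyoto cells arrested at G1/S by double thymidine block, proteins quantified by TMT10plex mass spectrometry in mild NP-40 versus SDS extracts, three biological replicates.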
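Throughout, for thermal stability score vs G1/S (z-score of summed log2 fold changes over temperatures): synchronized HeLa Kyoto cells, proteins quantified by TMT10plex mass spectrometry, three biological replicates, mitosis taken 0.5 h after nocodazole release, G1/S directly after double thymidine block.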

For “MLPVYQEVKPNPLQDANLCSRVFFWWLNPLFKIGHKRRLEEDDMYSVLPEDRSQHLGEELQGFWDKEVLRAENDAQKPSLTRAIIKCYWKSYLVLGIFTLIEESAKVIQPIFLGKIINYFENYDPMDSVALNTAYAYATVLTFCTLILAILHHLYFYHVQCAGMRLRVAMCHMIYRKALRLSNMAMGKTTTGQIVNLLSNDVNKFDQVTVFLHFLWAGPLQAIAVTALLWMEIGISCLAGMAVLIILLPLQSCFGKLFSSLRSKTATFTDARIRTMNEVITGIRIIKMYAWEKSFSNLITNLRKKEISKILRSSCLRGMNLASFFSASKIIVFVTFTTYVLLGSVITASRVFVAVTLYGAVRLTVTLFFPSAIERVSEAIVSIRRIQTFLLLDEISQRNRQLPSDGKKMVHVQDFTAFWDKASETPTLQGLSFTVRPGELLAVVGPVGAGKSSLLSAVLGELAPSHGLVSVHGRIAYVSQQPWVFSGTLRSNILFGKKYEKERYEKVIKACALKKDLQLLEDGDLTVIGDRGTTLSGGQKARVNLARAVYQDADIYLLDDPLSAVDAEVSRHLFELCICQILHEKITILVTHQLQYLKAASQILILKDGKMVQKGTYTEFLKSGIDFGSLLKKDNEESEQPPVPGTPTLRNRTFSESSVWSQQSSRPSLKDGALESQDTENVPVTLSEENRSEGKVGFQAYKNYFRAGAHWIVFIFLILLNTAAQVAYVLQDWWLSYWANKQSMLNVTVNGGGNVTEKLDLNWYLGIYSGLTVATVLFGIARSLLVFYVLVNSSQTLHNKMFESILKAPVLFFDRNPIGRILNRFSKDIGHLDDLLPLTFLDFIQTLLQVVGVVSVAVAVIPWIAIPLVPLGIIFIFLRRYFLETSRDVKRLESTTRSPVFSHLSSSLQGLWTIRAYKAEERCQELFDAHQDLHSEAWFLFLTTSRWFAVRLDAICAMFVIIVAFGSLILAKTLDAGQVGLALSYALTLMGMFQWCVRQSAEVENMMISVERVIEYTDLEKEAPWEYQKRPPPAWPHEGVIIFDNVNFMYSPGGPLVLKHLTALIKSQEKVGIVGRTGAGKSSLISALFRLSEPEGKIWIDKILTTEIGLHDLRKKMSIIPQEPVLFTGTMRKNLDPFNEHTDEELWNALQEVQLKETIEDLPGKMDTELAESGSNFSVGQRQLVCLARAILRKNQILIIDEATANVDPRTDELIQKKIREKFAHCTVLTIAHRLNTIIDSDKIMVLDSGRLKEYDEPYVLLQNKESLFYKMVQQLGKAEAAALTETAKQVYFKRNYPHIGHTDHMVTNTSNGQPSTLTIFETAL [ABCC4]”, the melting temperature in the data set on HeLa Kyoto [1] (cell cycle stage: G1/S) is 57.5 °C; in the data set with HeLa Kyoto [1] (cell cycle stage: mitosis), 55.8 °C. The thermal stability score in the data set with HeLa Kyoto [2] (setting [5]) is -1.17; in the data set on HeLa Kyoto [2] (cell cycle stage: mitosis), -1.43. Further, the “solubility in G1/S (log2)” value in the data set on HeLa Kyoto [3] was -0.0872. In the data set on HeLa Kyoto [4], the “solubility change mitosis (log2)” value is -0.177.
On to “MLQQVPENINFPAEEEKILEFWTEFNCFQECLKQSKHKPKFTFYDGPPFATGLPHYGHILAGTIKDIVTRYAHQSGFHVDRRFGWDCHGLPVEYEIDKTLGIRGPEDVAKMGITEYNNQCRAIVMRYSAEWKSTVSRLGRWIDFDNDYKTLYPQFMESVWWVFKQLYDKGLVYRGVKVMPFSTACNTPLSNFESHQNYKDVQDPSVFVTFPLEEDETVSLVAWTTTPWTLPSNLAVCVNPEMQYVKIKDVARGRLLILMEARLSALYKLESDYEILERFPGAYLKGKKYRPLFDYFLKCKENGAFTVLVDNYVKEEEGTGVVHQAPYFGAEDYRVCMDFNIIRKDSLPVCPVDASGCFTTEVTDFAGQYVKDADKSIIRTLKEQGRLLVATTFTHSYPFCWRSDTPLIYKAVPSWFVRVENMVDQLLRNNDLCYWVPELVREKRFGNWLKDARDWTISRNRYWGTPIPLWVSDDFEEVVCIGSVAELEELSGAKISDLHRESVDHLTIPSRCGKGSLHRISEVFDCWFESGSMPYAQVHYPFENKREFEDAFPADFIAEGIDQTRGWFYTLLVLATALFGQPPFKNVIVNGLVLASDGQKMSKRKKNYPDPVSIIQKYGADALRLYLINSPVVRAENLRFKEEGVRDVLKDVLLPWYNAYRFLIQNVLRLQKEEEIEFLYNENTVRESPNITDRWILSFMQSLIGFFETEMAAYRLYTVVPRLVKFVDILTNWYVRMNRRRLKGENGMEDCVMALETLFSVLLSLCRLMAPYTPFLTELMYQNLKVLIDPVSVQDKDTLSIHYLMLPRVREELIDKKTESAVSQMQSVIELGRVIRDRKTIPIKYPLKEIVVIHQDPEALKDIKSLEKYIIEELNVRKVTLSTDKNKYGIRLRAEPDHMVLGKRLKGAFKAVMTSIKQLSSEELEQFQKTGTIVVEGHELHDEDIRLMYTFDQATGGTAQFEAHSDAQALVLLDVTPDQSMVDEGMAREVINRIQKLRKKCNLVPTDEITVYYKAKSEGTYLNSVIESHTEFIFTTIKAPLKPYPVSPSDKVLIQEKTQLKGSELEITLTRGSSLPGPACAYVNLNICANGSEQGGVLLLENPKGDNRLDLLKLKSVVTSIFGVKNTELAVFHDETEIQNQTDLLSLSGKTLCVTAGSAPSLINSSSTLLCQYINLQLLNAKPQECLMGTVGTLLLENPLGQNGLTHQGLLYEAAKVFGLRSRKLKLFLNETQTQEITEDIPVKTLNMKTVYVSVLPTTADF [IARS]”, for which the melting temperature in the data set with HeLa Kyoto [1] (cell cycle stage: G1/S) came to 48.8 °C; in the data set with HeLa Kyoto [1] (cell cycle stage: mitosis), 49.2 °C. The thermal stability score in the data set on HeLa Kyoto [2] (setting [5]) was determined as 0.0148; in the data set on HeLa Kyoto [2] (cell cycle stage: mitosis) it was 2.81. Moreover, in the data set with HeLa Kyoto [3], the “solubility in G1/S (log2)” value is -0.225. The “solubility change mitosis (log2)” value in the data set on HeLa Kyoto [4] was -0.178.
“MLRACQLSGVTAAAQSCLCGKFVLRPLRPCRRYSTSGSSGLTTGKIAGAGLLFVGGGIGGTILYAKWDSHFRESVEKTIPYSDKLFEMVLGPAAYNVPLPKKSIQSGPLKISSVSEVMKESKQPASQLQKQKGDTPASATAPTEAAQIISAAGDTLSVPAPAVQPEESLKTDHPEIGEGKPTPALSEEASSSSIRERPPEEVAARLAQQEKQEQVKIESLAKSLEDALRQTASVTLQAIAAQNAAVQAVNAHSNILKAAMDNSEIAGEKKSAQWRTVEGALKERRKAVDEAADALLKAKEELEKMKSVIENAKKKEVAGAKPHITAAEGKLHNMIVDLDNVVKKVQAAQSEAKVVSQYHELVVQARDDFKRELDSITPEVLPGWKGMSVSDLADKLSTDDLNSLIAHAHRRIDQLNRELAEQKATEKQHITLALEKQKLEEKRAFDSAVAKALEHHRSEIQAEQDRKIEEVRDAMENEMRTQLRRQAAAHTDHLRDVLRVQEQELKSEFEQNLSEKLSEQELQFRRLSQEQVDNFTLDINTAYARLRGIEQAVQSHAVAEEEARKAHQLWLSVEALKYSMKTSSAETPTIPLGSAVEAIKANCSDNEFTQALTAAIPPESLTRGVYSEETLRARFYAVQKLARRVAMIDETRNSLYQYFLSYLQSLLLFPPQQLKPPPELCPEDINTFKLLSYASYCIEHGDLELAAKFVNQLKGESRRVAQDWLKEARMTLETKQIVEILTAYASAVGIGTTQVQPE [IMMT]”: the melting temperature worked out at 53.2 °C in the data set with HeLa Kyoto [1] (cell cycle stage: G1/S) and 52 °C with HeLa Kyoto [1] (cell cycle stage: mitosis). Moreover, the values for the thermal stability score in the data set on HeLa Kyoto [2] (setting [5]) and in the data set on HeLa Kyoto [2] (cell cycle stage: mitosis) were 0.171 and -1.21, respectively. Moreover, in the data set with HeLa Kyoto [3], the “solubility in G1/S (log2)” value was determined as 0.38. For the same sequence, in the data set on HeLa Kyoto [4], the “solubility change mitosis (log2)” value was determined as 0.0268.
For the sequence “MLRAKNQLFLLSPHYLRQVKESSGSRLIQQRLLHQQQPLHPEWAALAKKQLKGKNPEDLIWHTPEGISIKPLYSKRDTMDLPEELPGVKPFTRGPYPTMYTFRPWTIRQYAGFSTVEESNKFYKDNIKAGQQGLSVAFDLATHRGYDSDNPRVRGDVGMAGVAIDTVEDTKILFDGIPLEKMSVSMTMNGAVIPVLANFIVTGEEQGVPKEKLTGTIQNDILKEFMVRNTYIFPPEPSMKIIADIFEYTAKHMPKFNSISISGYHMQEAGADAILELAYTLADGLEYSRTGLQAGLTIDEFAPRLSFFWGIGMNFYMEIAKMRAGRRLWAHLIEKMFQPKNSKSLLLRAHCQTSGWSLTEQDPYNNIVRTAIEAMAAVFGGTQSLHTNSFDEALGLPTVKSARIARNTQIIIQEESGIPKVADPWGGSYMMECLTNDVYDAALKLINEIEEMGGMAKAVAEGIPKLRIEECAARRQARIDSGSEVIVGVNKYQLEKEDAVEVLAIDNTSVRNRQIEKLKKIKSSRDQALAERCLAALTECAASGDGNILALAVDASRARCTVGEITDALKKVFGEHKANDRMVSGAYRQEFGESKEITSAIKRVHKFMEREGRRPRLLVAKMGQDGHDRGAKVIATGFADLGFDVDIGPLFQTPREVAQQAVDADVHAVGISTLAAGHKTLVPELIKELNSLGRPDILVMCGGVIPPQDYEFLFEVGVSNVFGPGTRIPKAAVQVLDDIEKCLEKKQQSV [MUT]”, the figures for the melting temperature in the data set on HeLa Kyoto [1] (cell cycle stage: G1/S) and in the data set on HeLa Kyoto [1] (cell cycle stage: mitosis) were 50.6 °C and 50.3 °C, respectively. Moreover, the thermal stability score in the data set on HeLa Kyoto [2] (setting [5]) is -0.0875; in the data set on HeLa Kyoto [2] (cell cycle stage: mitosis), 0.531. Also, in the data set on HeLa Kyoto [3], the “solubility in G1/S (log2)” value came to 0.0667. Also, the “solubility change mitosis (log2)” value in the data set on HeLa Kyoto [4] is -0.0993.
For the sequence “MLRCLYHWHRPVLNRRWSRLCLPKQYLFTMKLQSPEFQSLFTEGLKSLTELFVKENHELRIAGGAVRDLLNGVKPQDIDFATTATPTQMKEMFQSAGIRMINNRGEKHGTITARLHEENFEITTLRIDVTTDGRHAEVEFTTDWQKDAERRDLTINSMFLGFDGTLFDYFNGYEDLKNKKVRFVGHAKQRIQEDYLRILRYFRFYGRIVDKPGDHDPETLEAIAENAKGLAGISGERIWVELKKILVGNHVNHLIHLIYDLDVAPYIGLPANASLEEFDKVSKNVDGFSPKPVTLLASLFKVQDDVTKLDLRLKIAKEEKNLGLFIVKNRKDLIKATDSSDPLKPYQDFIIDSREPDATTRVCELLKYQGEHCLLKEMQQWSIPPFPVSGHDIRKVGISSGKEIGALLQQLREQWKKSGYQMEKDELLSYIKKT [TRNT1]”, the melting temperature in the data set with HeLa Kyoto [1] (cell cycle stage: G1/S) was determined as 50.9 °C; with HeLa Kyoto [1] (cell cycle stage: mitosis), 50.2 °C. Further, the thermal stability score turned out to be 1.75 in the data set on HeLa Kyoto [2] (setting [5]) and 1.59 with HeLa Kyoto [2] (cell cycle stage: mitosis). The “solubility in G1/S (log2)” value in the data set on HeLa Kyoto [3] is 0.146. For the same sequence, in the data set on HeLa Kyoto [4], the “solubility change mitosis (log2)” value is -0.109.

The values above are taken from the supplement of paper PMC5998384.
